Experimental data: article PMC5647378, “Structural and Mechanistic Analysis of Drosophila melanogaster Agmatine N-Acetyltransferase, an Enzyme that Catalyzes the Formation of N-Acetylagmatine” (Scientific Reports, 2017)
Where two headings read alike, the source gives them in different places. Each block holds one molecule with its values, some of them ahead of it.

Columns and labels:
[1] = target: T1, Drosophila melanogaster AgmNAT (CG15766), wild-type (Drosophila melanogaster, UniProt Q9W469); assay: AgmNAT steady-state kinetics, coenzyme A release with Ellman's reagent (DTNB); type: biochemical; settings: for kcat,app / Km: 300 mM Tris-HCl pH 8.5, 150 µM DTNB; for acceptance as amine substrate: amine substrate screen with acetyl-CoA
Experimental: Steady-state kinetic constants for AgmNAT were determined by measuring the rate of coenzyme A release using Ellman’s reagent (DTNB) at 412 nm (molar absorptivity = 13,600 M^−1 cm^−1)[15]–[17]. […] Initial velocities were measured using a Cary 300 Bio UV-Visible spectrophotometer at 22 °C. Acyl-CoA kinetic constants were evaluated by holding the concentration of agmatine at a constant saturating concentration (5 mM). […] The apparent kinetic constants were determined by fitting the resulting data to equation 1 using SigmaPlot 12.0, where vo is the initial velocity, Vmax,app is the apparent maximal velocity, [S] is the substrate concentration, and Km,app is the apparent Michaelis constant. Each assay was performed in triplicate and the uncertainty for the kcat,app and (kcat/Km)app values were calculated using equation 2, where σ is the standard error.1 vo=Vmax,app[S]/Km,app+[S] 2 σ(x/y)=x/y(σx/x)^2+(σy/y)^2

[2] = target: T1, Drosophila melanogaster AgmNAT (CG15766), wild-type; assay: AgmNAT dead-end and product inhibition analysis; type: biochemical
Experimental: Initial velocities were determined by varying the concentration of one substrate, while holding the other substrate at a fixed concentration. […] The resulting initial velocity data was fit to equation 3 for an ordered Bi-Bi mechanism and equation 4 for a ping pong mechanism using IGOR Pro 6.34 A, where vo is the initial velocity, Vmax is the maximal velocity, Kia is the dissociation constant for substrate A, Kb is the Michaelis constant for substrate B, Ka is the Michaelis constant for substrate A, [A] is the concentration of substrate A, and [B] is the concentration of substrate B.3 vo=Vmax[A][B]/KiaKb+Ka[B]+Kb[A]+[A][B] 4 vo=Vmax[A][B]/Ka[B]+Kb[A]+[A][B]
Inhibition experiments by either substrate analogs or N-acetylagamatine were used to discriminate between an ordered, random sequential, or ping pong kinetic mechanism. […] Initial velocity patterns were generated by varying the concentration of one substrate, holding the other substrate concentration at its apparent Km, and changing the concentration of inhibitor for each data set in triplicate. The resulting data was fit to equations 5–7, for competitive, noncompetitive, and uncompetitive inhibition respectively using SigmaPlot 12.0. For […], vo is the initial velocity, Vmax,app is the apparent maximal velocity, Km,app is the apparent Michaelis constant, [S] is the substrate concentration, [I] is the inhibitor concentration, and Ki is the inhibition constant.5 vo=Vmax,app[S]/Km,app(1+[I]/Ki)+[S] 6 vo=Vmax,app[S]/Km,app(1+[I]/Ki)+[S](1+[I]/Ki) 7 vo=Vmax,app[S]/Km,app+[S](1+[I]/Ki)

[3] = substrate: N=C(N)NCCCCN; assay: AgmNAT steady-state kinetics, coenzyme A release with Ellman's reagent (DTNB); type: biochemical, Drosophila melanogaster; settings: other: amine varied, 500 μM acetyl-CoA, 300 mM Tris-HCl pH 8.5, 150 µM DTNB, 22.0 °C
[4] = substrate: NCCCCCN; assay: as above; type: biochemical, Drosophila melanogaster; settings: other: amine varied, 500 μM acetyl-CoA, 300 mM Tris-HCl pH 8.5, 150 µM DTNB, 22.0 °C
[5] = substrate: NCCCCNCCCN; assay: as above; type: biochemical, Drosophila melanogaster; settings: other: amine varied, 500 μM acetyl-CoA, 300 mM Tris-HCl pH 8.5, 150 µM DTNB, 22.0 °C
[6] = substrate: N=C(N)NCCCCN; assay: Steady-state kinetics of AgmNAT site-directed mutant E34A; type: biochemical, Drosophila melanogaster; settings: other: E34A, agmatine varied, saturating acetyl-CoA, pH 8.5
Description: (§1) Following the amplification of the AgmNAT site-directed mutant, the sub-cloning, expression, and purification procedures are the same as discussed for the wild-type enzyme.

[7] = substrate: CC(=O)SCCNC(=O)CCNC(=O)[C@H](O)C(C)(C)COP(=O)(O)OP(=O)(O)OC[C@H]1O[C@@H](n2cnc3c(N)ncnc32)[C@H](O)[C@@H]1OP(=O)(O)O; assay: as above; type: biochemical, Drosophila melanogaster; settings: other: E34A, acetyl-CoA varied, saturating agmatine, pH 8.5
Description: as §1

[8] = substrate: N=C(N)NCCCCN; assay: Steady-state kinetics of AgmNAT site-directed mutant P35A; type: biochemical, Drosophila melanogaster; settings: other: P35A, agmatine varied, saturating acetyl-CoA, pH 8.5
Description: as §1

[9] = substrate: CC(=O)SCCNC(=O)CCNC(=O)[C@H](O)C(C)(C)COP(=O)(O)OP(=O)(O)OC[C@H]1O[C@@H](n2cnc3c(N)ncnc32)[C@H](O)[C@@H]1OP(=O)(O)O; assay: as above; type: biochemical, Drosophila melanogaster; settings: other: P35A, acetyl-CoA varied, saturating agmatine, pH 8.5
Description: as §1

[10] = substrate: N=C(N)NCCCCN; assay: Steady-state kinetics of AgmNAT site-directed mutant S171A; type: biochemical, Drosophila melanogaster; settings: other: S171A, agmatine varied, saturating acetyl-CoA, pH 8.5
Description: as §1

[11] = substrate: CC(=O)SCCNC(=O)CCNC(=O)[C@H](O)C(C)(C)COP(=O)(O)OP(=O)(O)OC[C@H]1O[C@@H](n2cnc3c(N)ncnc32)[C@H](O)[C@@H]1OP(=O)(O)O; assay: as above; type: biochemical, Drosophila melanogaster; settings: other: S171A, acetyl-CoA varied, saturating agmatine, pH 8.5
Description: as §1

[12] = substrate: N=C(N)NCCCCN; assay: Steady-state kinetics of AgmNAT site-directed mutant H206A; type: biochemical, Drosophila melanogaster; settings: other: H206A, agmatine varied, saturating acetyl-CoA, pH 8.5
Description: as §1

[13] = substrate: CC(=O)SCCNC(=O)CCNC(=O)[C@H](O)C(C)(C)COP(=O)(O)OP(=O)(O)OC[C@H]1O[C@@H](n2cnc3c(N)ncnc32)[C@H](O)[C@@H]1OP(=O)(O)O; assay: as above; type: biochemical, Drosophila melanogaster; settings: other: H206A, acetyl-CoA varied, saturating agmatine, pH 8.5
Description: as §1

[14] = acyl-CoA varied, 5 mM agmatine, read-out: Km,app
[15] = varied substrate agmatine, constant acetyl-CoA (0.1 mM; 104 µM), read-out: Ki,s
[16] = amine varied, 500 μM acetyl-CoA
[17] = amine varied, 500 μM acetyl-CoA, read-out: Km, app

- kcat,app ([1]; acyl-CoA varied, 5 mM agmatine): 0.61 ± 0.02 s⁻¹
- Km [1, 14]: 140 µM
Molecule: CCCCCCCC(=O)SCCNC(=O)CCNC(=O)[C@H](O)C(C)(C)COP(=O)(O)OP(=O)(O)OC[C@H]1O[C@@H](n2cnc3c(N)ncnc32)[C@H](O)[C@@H]1OP(=O)(O)O [Octanoyl-CoA]

- kcat,app ([1]; acyl-CoA varied, 5 mM agmatine): 3.3 ± 0.1 s⁻¹
- Km [1, 14]: 40 µM
Molecule: CCCC(=O)SCCNC(=O)CCNC(=O)[C@H](O)C(C)(C)COP(=O)(O)OP(=O)(O)OC[C@H]1O[C@@H](n2cnc3c(N)ncnc32)[C@H](O)[C@@H]1OP(=O)(O)O [Butyryl-CoA]

- kcat,app ([1]; acyl-CoA varied, 5 mM agmatine): 1.1 ± 0.04 s⁻¹
- Km [1, 14]: 110 µM
Molecule: CCCCCC(=O)SCCNC(=O)CCNC(=O)C(O)C(C)(C)COP(=O)(O)OP(=O)(O)OC[C@H]1O[C@@H](n2cnc3c(N)ncnc32)[C@H](O)[C@@H]1OP(=O)(O)O (some centres unmarked) [Hexanoyl-CoA]

- acceptance as amine substrate [1]: not AgmNAT substrates
Molecule: CC(=O)NCCCCN [N-acetylputrescine]

- Ki ([2]; varied substrate acetyl-CoA, constant agmatine (0.3 mM), read-out: Ki,i): 34 ± 1 µM
- Ki [2, 15]: 28 ± 1 µM
- type of inhibition plot (in words) ([2]; versus acetyl-CoA): uncompetitive
- type of inhibition plot (in words) ([2]; versus agmatine): competitive
Molecule: NC(N)=NCCCCN=C(N)N [Arcaine]

- difference in Km,app relative to spermidine ([1]; acetyl-CoA as co-substrate): ~ 2 fold
- increase in kcat,app compared to spermidine ([1]; acetyl-CoA as co-substrate): ~ 25 fold
- kcat,app [1, 16]: 32 ± 2 s⁻¹
- Km [1, 17]: 9100 ± 1000 µM
Molecule: CC(=O)NCCCCNCCCN [N ^8-acetylspermidine]

- (kcat/Km)app,agmatine/(kcat/Km)app,polyamine ratio ([1]; acetyl-CoA as co-substrate): 1900
Molecule: NCCCCCN [Cadaverine]

- Ki ([2]; varied substrate acetyl-CoA, constant agmatine (0.3 mM), read-out: Ki,s): 19 ± 1 µM
- Ki ([2]; varied substrate agmatine, constant acetyl-CoA (0.1 mM; 104 µM), read-out: Ki,i): 67 ± 4 µM
- Ki [2, 15]: 67 ± 4 µM
- type of inhibition plot (in words) ([2]; versus acetyl-CoA): competitive
- type of inhibition plot (in words) ([2]; versus agmatine): noncompetitive
- acceptance as acyl-CoA substrate ([1]; agmatine as amine substrate, oleoyl-CoA at 500 μM): not a substrate
Molecule: CCCCCCCC/C=C\CCCCCCCC(=O)SCCNC(=O)CCNC(=O)[C@H](O)C(C)(C)COP(=O)(O)OP(=O)(O)OC[C@H]1O[C@@H](n2cnc3c(N)ncnc32)[C@H](O)[C@@H]1OP(=O)(O)O [Oleoyl-CoA]

- acceptance as amine substrate [1]: not AgmNAT substrates
Molecule: CC(=O)NCCCNCCCCN [N ^1-acetylspermidine]

Molecule: NCCCNCCCCNCCCN [Spermine]
- (kcat/Km)app,agmatine/(kcat/Km)app,polyamine ratio ([1]; acetyl-CoA as co-substrate): 15
- kcat,app [1, 16]: 77 ± 7 s⁻¹
- Km [1, 17]: 18000 ± 3000 µM

Molecule: N=C(N)NCCC[C@H](N)C(=O)O [arginine]
- acceptance as amine substrate [1]: not AgmNAT substrates

- kcat,app [1, 16]: 7.7 ± 0.3 s⁻¹
- Km [1, 17]: 51000 ± 3000 µM
Molecule: NCCCCN [Putrescine]

- kcat,app ([1]; acyl-CoA varied, 5 mM agmatine): 0.16 ± 0.01 s⁻¹
- Km [1, 14]: 70 µM
- decrease in kcat,app from acetyl-CoA to decanoyl-CoA ([1]; agmatine as saturating amine substrate): ~ 150 fold
Molecule: CCCCCCCCCC(=O)SCCNC(=O)CCNC(=O)[C@H](O)C(C)(C)COP(=O)(O)OP(=O)(O)OC[C@H]1O[C@@H](n2cnc3c(N)ncnc32)[C@H](O)[C@@H]1OP(=O)(O)O [Decanoyl-CoA]

B1: Drosophila melanogaster AgmNAT (CG15766), wild-type (Drosophila melanogaster) (protein)
chain: MAKPIADDIVVRQVDVGETEQLMTFLLAHYYPEEPLTAGTHPPEPEAADKEFLLSNVPFGTCFVALHEGRIVAAVVAGPKDSHEPEHMAEEARKYAGGKWGSILHLLSAVETATDVCRRFSVPSCLHVHALGVDPQLRGRNLGGRLMETVAQRGRDLGHQLVSVDCTSVYSARLVQRLGYQLINTLRYVDHLDASGQQVIRPPPPHESVQTFVLHL
- Km [3]: 300 ± 20 µM
- kcat [3]: 18 ± 1 s⁻¹
- kcat/Km [3]: 60000 ± 5000 M⁻¹ s⁻¹
- Km [4]: 32000 ± 6000 µM
- kcat [4]: 1 ± 0.1 s⁻¹
- kcat/Km [4]: 32 ± 6 M⁻¹ s⁻¹
- Km [5]: 17000 ± 500 µM
- kcat [5]: 1.3 ± 0.009 s⁻¹
- kcat/Km [5]: 76 ± 0.5 M⁻¹ s⁻¹

B2: AgmNAT E34A mutant (Drosophila melanogaster; E34A) (protein)
chain: MAKPIADDIVVRQVDVGETEQLMTFLLAHYYPEAPLTAGTHPPEPEAADKEFLLSNVPFGTCFVALHEGRIVAAVVAGPKDSHEPEHMAEEARKYAGGKWGSILHLLSAVETATDVCRRFSVPSCLHVHALGVDPQLRGRNLGGRLMETVAQRGRDLGHQLVSVDCTSVYSARLVQRLGYQLINTLRYVDHLDASGQQVIRPPPPHESVQTFVLHL
- Km [6]: 6000 ± 1000 µM
- kcat [6]: 0.013 ± 0.001 s⁻¹
- kcat/Km [6]: 2.3 ± 0.3 M⁻¹ s⁻¹
- Km [7]: 18 ± 3 µM
- kcat [7]: 0.011 ± 0.0004 s⁻¹
- kcat/Km [7]: 600 ± 100 M⁻¹ s⁻¹

B3: AgmNAT P35A mutant (Drosophila melanogaster; P35A) (protein)
chain: MAKPIADDIVVRQVDVGETEQLMTFLLAHYYPEEALTAGTHPPEPEAADKEFLLSNVPFGTCFVALHEGRIVAAVVAGPKDSHEPEHMAEEARKYAGGKWGSILHLLSAVETATDVCRRFSVPSCLHVHALGVDPQLRGRNLGGRLMETVAQRGRDLGHQLVSVDCTSVYSARLVQRLGYQLINTLRYVDHLDASGQQVIRPPPPHESVQTFVLHL
- Km [8]: 180 ± 20 µM
- kcat [8]: 0.36 ± 0.02 s⁻¹
- kcat/Km [8]: 1900 ± 200 M⁻¹ s⁻¹
- Km [9]: (2.3 ± 0.3) × 10^2 μM
- kcat [9]: 0.43 ± 0.03 s⁻¹
- kcat/Km [9]: 1900 ± 300 M⁻¹ s⁻¹

B4: AgmNAT S171A mutant (Drosophila melanogaster; S171A) (protein)
chain: MAKPIADDIVVRQVDVGETEQLMTFLLAHYYPEEPLTAGTHPPEPEAADKEFLLSNVPFGTCFVALHEGRIVAAVVAGPKDSHEPEHMAEEARKYAGGKWGSILHLLSAVETATDVCRRFSVPSCLHVHALGVDPQLRGRNLGGRLMETVAQRGRDLGHQLVSVDCTSVYAARLVQRLGYQLINTLRYVDHLDASGQQVIRPPPPHESVQTFVLHL
- Km [10]: 1000 ± 200 µM
- kcat [10]: 1.7 ± 0.1 s⁻¹
- kcat/Km [10]: 1600 ± 300 M⁻¹ s⁻¹
- Km [11]: 24 ± 1 µM
- kcat [11]: 1.84 ± 0.03 s⁻¹
- kcat/Km [11]: 75000 ± 3000 M⁻¹ s⁻¹

B5: AgmNAT H206A mutant (Drosophila melanogaster; H206A) (protein)
chain: MAKPIADDIVVRQVDVGETEQLMTFLLAHYYPEEPLTAGTHPPEPEAADKEFLLSNVPFGTCFVALHEGRIVAAVVAGPKDSHEPEHMAEEARKYAGGKWGSILHLLSAVETATDVCRRFSVPSCLHVHALGVDPQLRGRNLGGRLMETVAQRGRDLGHQLVSVDCTSVYSARLVQRLGYQLINTLRYVDHLDASGQQVIRPPPPAESVQTFVLHL
- Km [12]: 420 ± 40 µM
- kcat [12]: 1.2 ± 0.1 s⁻¹
- kcat/Km [12]: 2800 ± 300 M⁻¹ s⁻¹
- Km [13]: (2.4 ± 0.3) × 10^2 μM
- kcat [13]: 1.3 ± 0.1 s⁻¹
- kcat/Km [13]: 5000 ± 1000 M⁻¹ s⁻¹
